Changes are numbered by the printed parent chain. Like-named read-outs stand apart in the source and are kept apart here.

In test [1] the target is T1, human beta-DG fused to the human hIgG1 Fc antibody region (hbeta-DG-hFc) (human, UniProt Q14118 654-749, limits assumed).
T1 construct: not shown: human IgG1 Fc region
T1 sequence (looked up): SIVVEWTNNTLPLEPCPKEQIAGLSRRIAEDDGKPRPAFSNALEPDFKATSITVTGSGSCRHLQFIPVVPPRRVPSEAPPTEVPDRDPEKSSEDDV
Briefly: double deck sandwich ELISA: plate coated with human LG-4/5, then biAb, then hbeta-DG-hFc, HRP anti-hFc; a signal needs both bindings at once. How it is done: (§1) 96-well plates were coated with 50 ng human LG-4/5 and blocked with 5% fetal bovine serum in PBS. Each well was incubated with 1 μg of the generated bispecific antibodies (murine IgG backbone). After 2 hours, wells were washed with PBS and re-incubated with 16 ng to 1 μg per well of human beta-DG fused to the human hIgG1 Fc antibody region (hbeta-DG-hFc). After 2 hours, wells were washed with PBS, incubated with a HRP conjugated anti-hFc secondary antibody for 45 minutes, washed again with PBS, and developed for colorimetric measuring.
(§2) Colorimetric signals could be detected only when hLG-4/5 and hbeta-DG-hFc were both added in the assay (FIG. 7). No signal was detected when parental monoclonal antibodies were used or when hbeta-DG-hFc was omitted. Three bispecific antibodies (biAbs), T1T2, T5T6, and C5C6, had the anticipated signal indicating simultaneous binding to both targets. The parental anti-LG4/5 or anti-beta-DG mAbs, or biAbs without beta-DG-hFc in the 2nd step were all negative in this assay.

For test [2], the target named is T2, human beta-dystroglycan extracellular domain (soluble) (human, UniProt Q14118 654-749).
T2 construct: extracellular domain; The expression construct of soluble human beta-DG is not described (only the mouse one); also called hBeta-DG; hbeta-DG
T2 sequence (looked up): T1 sequence (looked up)
Briefly: sequential SPR (Biacore): antibody immobilised on a CM5 chip, human LG-4/5 and then human beta-DG flowed over. Here is the method:
Parental monoclonal antibodies (AS19, C3 and C21) and three bispecific antibodies (AS19×C3 and AS30×C3 in TBTI, and AS30×C3 in CODVIg) were each immobilized onto individual CM5 Series S Biacore chips (GE Healthcare). Human or murine LG-4/5, followed in sequence by human or murine beta-DG, was flown over each chip and binding was assessed.
Parental mAbs to LG-4/5 or beta-DG and biAbs of anti-LG4/5 and beta-DG were captured onto biacore chips, and then flowed with human LG4/5 and human beta-DG sequentially to determine their concurrent bindings to both antigens. […] In contrast, parental monoclonal antibodies were only able to bind to one target, either LG-4/5 (C3 and C21 in FIGS. 6A & 6B) or beta-DG (AS19 in FIGS. 6A & 6B).
(In general: SPR reads the build-up and loss of mass on a sensor chip optically.)

Test [3] deals with T1, human beta-DG fused to the human hIgG1 …. Nature of the test: double deck sandwich ELISA: plate coated with human LG-4/5, then mAb, then hbeta-DG-hFc, HRP anti-hFc. Here is the method:
as §1, §2
In general terms: In an ELISA, binding on a coated surface is turned into a signal by an enzyme label.

Test [4] addresses T3, human laminin G-like 5 domain of laminin-2 (hLG-5) (human, UniProt P24043 2936-3122, soluble biotinylated protein (Avi tag)).
T3 construct: The construct used for the crystal structure with C21 Fab is not described; the same entry is used; also called human LG-5; human LG5; not shown: N-terminal Avi and HPC4 tags
T3 sequence: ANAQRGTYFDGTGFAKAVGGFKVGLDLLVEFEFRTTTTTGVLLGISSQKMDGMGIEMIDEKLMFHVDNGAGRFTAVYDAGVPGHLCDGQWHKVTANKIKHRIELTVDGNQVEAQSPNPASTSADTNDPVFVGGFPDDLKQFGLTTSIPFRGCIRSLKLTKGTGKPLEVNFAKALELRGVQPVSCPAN
Briefly: SPR (Biacore) kinetics; mAb immobilized, hLG-5 in flow.

In test [5] the target is T4, murine laminin G-like 4 and 5 domains of laminin-2 (mLG-4/5), soluble (mouse, UniProt Q60675 2725-3118).
T4 construct: range 2725-3118; also called murine LG-4/5; not shown: Avi tag and HPC4 tag left after TEV cleavage of the N-terminal mIgG2a fusion partner
T4 sequence (looked up): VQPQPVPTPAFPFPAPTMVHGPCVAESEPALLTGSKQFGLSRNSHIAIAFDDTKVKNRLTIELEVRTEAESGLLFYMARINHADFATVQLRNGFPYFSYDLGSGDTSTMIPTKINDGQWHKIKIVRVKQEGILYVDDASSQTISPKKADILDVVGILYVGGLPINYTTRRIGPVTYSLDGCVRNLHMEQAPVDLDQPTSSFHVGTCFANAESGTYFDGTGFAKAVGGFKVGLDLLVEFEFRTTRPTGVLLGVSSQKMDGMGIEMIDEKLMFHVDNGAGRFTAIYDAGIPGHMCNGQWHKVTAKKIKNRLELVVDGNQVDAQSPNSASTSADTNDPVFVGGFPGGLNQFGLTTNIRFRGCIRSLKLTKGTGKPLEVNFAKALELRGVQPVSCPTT
Nature of the test: SPR (Biacore) kinetics, antibody as ligand on the chip, mLG4/5 monomer in flow, fit 1:1 Binding.

The target in test [6] is T5, human laminin G-like 4 and 5 domains of laminin-2 (hLG-4/5), soluble (human, UniProt P24043 2729-3122, biotinylated in the ELISA of Example 6).
T5 construct: range 2729-3122; also called human LG-4/5; hLG4/LG5; not shown: Avi tag and HPC4 tag left after TEV cleavage of the N-terminal mIgG2a fusion partner
T5 sequence (looked up): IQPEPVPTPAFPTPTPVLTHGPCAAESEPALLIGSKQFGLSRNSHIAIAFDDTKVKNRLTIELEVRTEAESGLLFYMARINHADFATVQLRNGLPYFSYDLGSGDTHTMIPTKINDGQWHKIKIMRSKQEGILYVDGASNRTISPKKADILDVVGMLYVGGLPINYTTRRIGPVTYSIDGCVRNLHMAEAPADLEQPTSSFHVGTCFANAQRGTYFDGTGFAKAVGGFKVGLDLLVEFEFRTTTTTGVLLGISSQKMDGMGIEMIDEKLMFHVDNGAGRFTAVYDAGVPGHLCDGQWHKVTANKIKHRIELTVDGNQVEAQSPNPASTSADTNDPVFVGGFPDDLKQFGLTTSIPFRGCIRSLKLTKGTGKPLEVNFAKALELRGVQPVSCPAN
Nature of the test: SPR (Biacore) kinetics, antibody as ligand on the chip, hLG4/5 monomer in flow, fit 1:1 Binding.

The target of test [7] is murine laminin G-like 5 domain of laminin-2 (mLG-5) (mouse) (UniProt Q60675). Nature of the test: SPR (Biacore) kinetics; mAb immobilized, mLG-5 in flow.
Test [8] concerns the target T5, human laminin G-like 4 and 5 domains of …. Nature of the test: SPR (Biacore) kinetics, antibody as ligand on the chip, hLG4/5 monomer in flow, fit 1:1 Binding. The source holds these as a separate data set.
Test [9] concerns the target T4, murine laminin G-like 4 and 5 domains …. Nature of the test: SPR (Biacore) kinetics, antibody as ligand on the chip, mLG4/5 monomer in flow, fit 1:1 Binding. This is another data set of the same source.

B1: bispecific antibody T1T2: anti-beta-DG(AS19) x anti-laminin-2(C3), TBTI with (GGGGS)2 linker (bispecific antibody)
heavy: QVQLQQSGPELVKPGASVKMSCKASGFTFTDSVISWVKQRTGQGLEWIGEIYPGSGSIYYNEKFKGKATLTADKSSNTAYMQLRSLTSEDSAVYFCAMRRSYWGQGTLVTVSAGGGGSGGGGSDVMLVESGGDLVKPGGSLKLSCAASGFTFSSYTMSWVRQTPEKRLEWVASISSGGGNTYYPDSVKGRFTISRDNAKNNLYLQMSSLRSEDTALYYCARFDYGSSLDSWGQGTTLTVSS
light: DVLMTQTPLSLPVSLGDQASISCRSSQSIVHSNGNTYLEWYLQKPGQSPKLLIYKVSNRFSGVPDRFSGSGSGTDFTLKISRVEAEDLGVYYCFQGSHVPLTFGAGTKLELKGGGGSGGGGSDIVLTQSPATLSVTPGDSVSLSCRASQSISNNLHWYQQKSHESPRLLIKYASQSISGIPSRFSGSGSGTDFTLSINSVETEDFGMYFCQQSKNWPRTFGGGTKLEIK
notes: also called AS19xC3 in TBTI; biAb (AS19xC3); not shown: IgG1 heavy chain constant region: murine IgG1 (GenBank AAA75163.1) or human IgG1 (Genbank Q569F4); murine IgG backbone i; kappa light chain constant region: murine kappa chain (Genbank BAB33404) or human kappa chain (Genbank Q502W4)
B1: the binding result in test [1] and in [2] was “binds” each time.

B2: anti-laminin-2 antibody derived from hybridoma clone C21 (antibody, V domains shown)
VH: EVMLVESGGGLVKPGGSLKLSCAASGFTFSSYTMSWVRQTPEKRLEWVATISSGGDNTYYPDSVKGRFTISRDNAKNNLYLQMSSLRSEDTALYYCARFDYGSSLDCWGQGTTLTVSS
VL: DIVLTQSPATLSVTPGDSVSLSCRASQSISNYLHWYQQKSHESPRLLIKYASQSISGIPSRFSGSGSGTDFTLSINSVETEDFGMYFCQQSKSWPRTFGGGTELEIK
notes: Hybridoma monoclonal antibody (detected with anti-mouse IgG); also called anti-laminin-2(C21)
One may read the Kd as the constant that tells how readily two partners part at equilibrium. Higher therefore signals lower affinity. The term koff denotes a measure of how fast the partners let go of each other. Higher therefore signals fast dissociation. In general, kon refers to the rate constant with which the complex forms. Regarding B2, the binding result in [3] is listed as “no binding (tested: 1000 ng/ml)”; in [2] it was “no binding”. The Kd in test [4] came out at 2.8 nM; in test [5] it was 3.04 nM; in test [6], 2.8 nM; in test [7], 3.04 nM. In addition, the koff in [4] was determined as 0.00131 s⁻¹; in [5] it was 0.00253 s⁻¹; in [6] it was 0.00131 s⁻¹; in test [7], 0.00253 s⁻¹. The kon came to 467000 M⁻¹ s⁻¹ in [4], 813000 M⁻¹ s⁻¹ in [5], 467000 M⁻¹ s⁻¹ in test [6] and 813000 M⁻¹ s⁻¹ in test [7].

B3: anti-laminin-2 antibody derived from hybridoma clone C3 (antibody, V domains shown)
VH: B2 VH with E1D, G10D, T50S, D56G, C107S
VL: B2 VL with Y32N, S93N, E103K
notes: Hybridoma monoclonal antibody (detected with anti-mouse IgG); also called C03; anti-laminin-2(C3)
For B3, the koff in test [8] worked out at 0.0013 s⁻¹; in test [4] it was 0.0013 s⁻¹; in [9], 0.00429 s⁻¹; in test [7] it was 0.00429 s⁻¹. In addition, the on-rate constant (kon) in [8] is 488000 M⁻¹ s⁻¹; in test [4], 488000 M⁻¹ s⁻¹; in test [9], 519000 M⁻¹ s⁻¹; in test [7] it was 519000 M⁻¹ s⁻¹. For the same molecule, the results for the binding result in test [3] and in [2] were “no binding (tested: 1000 ng/ml)” and “no binding”, respectively. In addition, the figures for the dissociation constant (Kd) in test [4] and in [7] were 2.66 nM and 8.27 nM, respectively.

The values are drawn from patent US20180237511A1 (Sanofi, published 2018).
